Results: patent US20040254139, “Oligonucleotides antagonist for human tumor necrosis factor alpha (TNF-alpha)” (published 2004)

Key:
[1] = biological target: T1, TNF-alpha (tumor necrosis factor alpha) (Homo sapiens, UniProt P01375 P01375:77-233); experiment: ELONA; affinity unchanged; still positive at 3 ng/ml; settings: chain copies: 3
[2] = biological target: T1, TNF-alpha (tumor necrosis factor alpha); experiment: ELONA; affinity and inhibition activity stated unchanged; settings: chain copies: 3

T1 sequence (P01375 77-233, one chain of several): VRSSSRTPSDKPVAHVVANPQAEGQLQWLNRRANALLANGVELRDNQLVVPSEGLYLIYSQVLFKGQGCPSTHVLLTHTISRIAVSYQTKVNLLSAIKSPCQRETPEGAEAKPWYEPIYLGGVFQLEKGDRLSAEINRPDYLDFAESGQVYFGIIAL

Binder | binding result [1] | binding result [2]
CCUCAUAGACUACUGUUAAGCCUCGAGG (ssRNA, 2'-NH2 pyrimidines (printed 2-amido)) [truncated amino-modified SEQ 25] | binds | 
GCUUAGCAAACGCACCGCACAGGCCCGCGG (ssRNA, 2'-F and 2'-NH2 pyrimidines (printed 2-fluorin and 2-amido)) [truncated modified SEQ 20] |  | binds
